# Tests used:
# [1] = molecular target: Myelin Basic Protein (Sigma)
# [2] = molecular target: transcription factor GLI, the mammalian homologue of the Drosophila cubitus interruptus (Ci)
substance,measurement,setting,value
"fused KD (kinase domain of human fused alone), HA epitope tagged (enzyme)","amount of 32P incorporated into MBP, in vitro kinase assay on anti-HA immunoprecipitates (times higher compared to controls)",[1],3
"human fused (wild type, full length), HA epitope tagged (enzyme)","amount of 32P incorporated into MBP, in vitro kinase assay on anti-HA immunoprecipitates (times higher compared to controls)",[1],2
"human fused (wild type, full length), HA epitope tagged","GLI activity, luciferase reporter p9XGliLuc in C3H10T1/2 cells",[2],9.5 fold
